This is an account of results in publication PMC3272839.

In this assay the target is LRP1 minireceptor of domain IV, mLRP4 (UniProt Q07954). Briefly: flow cytometry on cells.
Sequence of UniProt Q07954 (Q07954 20-4544): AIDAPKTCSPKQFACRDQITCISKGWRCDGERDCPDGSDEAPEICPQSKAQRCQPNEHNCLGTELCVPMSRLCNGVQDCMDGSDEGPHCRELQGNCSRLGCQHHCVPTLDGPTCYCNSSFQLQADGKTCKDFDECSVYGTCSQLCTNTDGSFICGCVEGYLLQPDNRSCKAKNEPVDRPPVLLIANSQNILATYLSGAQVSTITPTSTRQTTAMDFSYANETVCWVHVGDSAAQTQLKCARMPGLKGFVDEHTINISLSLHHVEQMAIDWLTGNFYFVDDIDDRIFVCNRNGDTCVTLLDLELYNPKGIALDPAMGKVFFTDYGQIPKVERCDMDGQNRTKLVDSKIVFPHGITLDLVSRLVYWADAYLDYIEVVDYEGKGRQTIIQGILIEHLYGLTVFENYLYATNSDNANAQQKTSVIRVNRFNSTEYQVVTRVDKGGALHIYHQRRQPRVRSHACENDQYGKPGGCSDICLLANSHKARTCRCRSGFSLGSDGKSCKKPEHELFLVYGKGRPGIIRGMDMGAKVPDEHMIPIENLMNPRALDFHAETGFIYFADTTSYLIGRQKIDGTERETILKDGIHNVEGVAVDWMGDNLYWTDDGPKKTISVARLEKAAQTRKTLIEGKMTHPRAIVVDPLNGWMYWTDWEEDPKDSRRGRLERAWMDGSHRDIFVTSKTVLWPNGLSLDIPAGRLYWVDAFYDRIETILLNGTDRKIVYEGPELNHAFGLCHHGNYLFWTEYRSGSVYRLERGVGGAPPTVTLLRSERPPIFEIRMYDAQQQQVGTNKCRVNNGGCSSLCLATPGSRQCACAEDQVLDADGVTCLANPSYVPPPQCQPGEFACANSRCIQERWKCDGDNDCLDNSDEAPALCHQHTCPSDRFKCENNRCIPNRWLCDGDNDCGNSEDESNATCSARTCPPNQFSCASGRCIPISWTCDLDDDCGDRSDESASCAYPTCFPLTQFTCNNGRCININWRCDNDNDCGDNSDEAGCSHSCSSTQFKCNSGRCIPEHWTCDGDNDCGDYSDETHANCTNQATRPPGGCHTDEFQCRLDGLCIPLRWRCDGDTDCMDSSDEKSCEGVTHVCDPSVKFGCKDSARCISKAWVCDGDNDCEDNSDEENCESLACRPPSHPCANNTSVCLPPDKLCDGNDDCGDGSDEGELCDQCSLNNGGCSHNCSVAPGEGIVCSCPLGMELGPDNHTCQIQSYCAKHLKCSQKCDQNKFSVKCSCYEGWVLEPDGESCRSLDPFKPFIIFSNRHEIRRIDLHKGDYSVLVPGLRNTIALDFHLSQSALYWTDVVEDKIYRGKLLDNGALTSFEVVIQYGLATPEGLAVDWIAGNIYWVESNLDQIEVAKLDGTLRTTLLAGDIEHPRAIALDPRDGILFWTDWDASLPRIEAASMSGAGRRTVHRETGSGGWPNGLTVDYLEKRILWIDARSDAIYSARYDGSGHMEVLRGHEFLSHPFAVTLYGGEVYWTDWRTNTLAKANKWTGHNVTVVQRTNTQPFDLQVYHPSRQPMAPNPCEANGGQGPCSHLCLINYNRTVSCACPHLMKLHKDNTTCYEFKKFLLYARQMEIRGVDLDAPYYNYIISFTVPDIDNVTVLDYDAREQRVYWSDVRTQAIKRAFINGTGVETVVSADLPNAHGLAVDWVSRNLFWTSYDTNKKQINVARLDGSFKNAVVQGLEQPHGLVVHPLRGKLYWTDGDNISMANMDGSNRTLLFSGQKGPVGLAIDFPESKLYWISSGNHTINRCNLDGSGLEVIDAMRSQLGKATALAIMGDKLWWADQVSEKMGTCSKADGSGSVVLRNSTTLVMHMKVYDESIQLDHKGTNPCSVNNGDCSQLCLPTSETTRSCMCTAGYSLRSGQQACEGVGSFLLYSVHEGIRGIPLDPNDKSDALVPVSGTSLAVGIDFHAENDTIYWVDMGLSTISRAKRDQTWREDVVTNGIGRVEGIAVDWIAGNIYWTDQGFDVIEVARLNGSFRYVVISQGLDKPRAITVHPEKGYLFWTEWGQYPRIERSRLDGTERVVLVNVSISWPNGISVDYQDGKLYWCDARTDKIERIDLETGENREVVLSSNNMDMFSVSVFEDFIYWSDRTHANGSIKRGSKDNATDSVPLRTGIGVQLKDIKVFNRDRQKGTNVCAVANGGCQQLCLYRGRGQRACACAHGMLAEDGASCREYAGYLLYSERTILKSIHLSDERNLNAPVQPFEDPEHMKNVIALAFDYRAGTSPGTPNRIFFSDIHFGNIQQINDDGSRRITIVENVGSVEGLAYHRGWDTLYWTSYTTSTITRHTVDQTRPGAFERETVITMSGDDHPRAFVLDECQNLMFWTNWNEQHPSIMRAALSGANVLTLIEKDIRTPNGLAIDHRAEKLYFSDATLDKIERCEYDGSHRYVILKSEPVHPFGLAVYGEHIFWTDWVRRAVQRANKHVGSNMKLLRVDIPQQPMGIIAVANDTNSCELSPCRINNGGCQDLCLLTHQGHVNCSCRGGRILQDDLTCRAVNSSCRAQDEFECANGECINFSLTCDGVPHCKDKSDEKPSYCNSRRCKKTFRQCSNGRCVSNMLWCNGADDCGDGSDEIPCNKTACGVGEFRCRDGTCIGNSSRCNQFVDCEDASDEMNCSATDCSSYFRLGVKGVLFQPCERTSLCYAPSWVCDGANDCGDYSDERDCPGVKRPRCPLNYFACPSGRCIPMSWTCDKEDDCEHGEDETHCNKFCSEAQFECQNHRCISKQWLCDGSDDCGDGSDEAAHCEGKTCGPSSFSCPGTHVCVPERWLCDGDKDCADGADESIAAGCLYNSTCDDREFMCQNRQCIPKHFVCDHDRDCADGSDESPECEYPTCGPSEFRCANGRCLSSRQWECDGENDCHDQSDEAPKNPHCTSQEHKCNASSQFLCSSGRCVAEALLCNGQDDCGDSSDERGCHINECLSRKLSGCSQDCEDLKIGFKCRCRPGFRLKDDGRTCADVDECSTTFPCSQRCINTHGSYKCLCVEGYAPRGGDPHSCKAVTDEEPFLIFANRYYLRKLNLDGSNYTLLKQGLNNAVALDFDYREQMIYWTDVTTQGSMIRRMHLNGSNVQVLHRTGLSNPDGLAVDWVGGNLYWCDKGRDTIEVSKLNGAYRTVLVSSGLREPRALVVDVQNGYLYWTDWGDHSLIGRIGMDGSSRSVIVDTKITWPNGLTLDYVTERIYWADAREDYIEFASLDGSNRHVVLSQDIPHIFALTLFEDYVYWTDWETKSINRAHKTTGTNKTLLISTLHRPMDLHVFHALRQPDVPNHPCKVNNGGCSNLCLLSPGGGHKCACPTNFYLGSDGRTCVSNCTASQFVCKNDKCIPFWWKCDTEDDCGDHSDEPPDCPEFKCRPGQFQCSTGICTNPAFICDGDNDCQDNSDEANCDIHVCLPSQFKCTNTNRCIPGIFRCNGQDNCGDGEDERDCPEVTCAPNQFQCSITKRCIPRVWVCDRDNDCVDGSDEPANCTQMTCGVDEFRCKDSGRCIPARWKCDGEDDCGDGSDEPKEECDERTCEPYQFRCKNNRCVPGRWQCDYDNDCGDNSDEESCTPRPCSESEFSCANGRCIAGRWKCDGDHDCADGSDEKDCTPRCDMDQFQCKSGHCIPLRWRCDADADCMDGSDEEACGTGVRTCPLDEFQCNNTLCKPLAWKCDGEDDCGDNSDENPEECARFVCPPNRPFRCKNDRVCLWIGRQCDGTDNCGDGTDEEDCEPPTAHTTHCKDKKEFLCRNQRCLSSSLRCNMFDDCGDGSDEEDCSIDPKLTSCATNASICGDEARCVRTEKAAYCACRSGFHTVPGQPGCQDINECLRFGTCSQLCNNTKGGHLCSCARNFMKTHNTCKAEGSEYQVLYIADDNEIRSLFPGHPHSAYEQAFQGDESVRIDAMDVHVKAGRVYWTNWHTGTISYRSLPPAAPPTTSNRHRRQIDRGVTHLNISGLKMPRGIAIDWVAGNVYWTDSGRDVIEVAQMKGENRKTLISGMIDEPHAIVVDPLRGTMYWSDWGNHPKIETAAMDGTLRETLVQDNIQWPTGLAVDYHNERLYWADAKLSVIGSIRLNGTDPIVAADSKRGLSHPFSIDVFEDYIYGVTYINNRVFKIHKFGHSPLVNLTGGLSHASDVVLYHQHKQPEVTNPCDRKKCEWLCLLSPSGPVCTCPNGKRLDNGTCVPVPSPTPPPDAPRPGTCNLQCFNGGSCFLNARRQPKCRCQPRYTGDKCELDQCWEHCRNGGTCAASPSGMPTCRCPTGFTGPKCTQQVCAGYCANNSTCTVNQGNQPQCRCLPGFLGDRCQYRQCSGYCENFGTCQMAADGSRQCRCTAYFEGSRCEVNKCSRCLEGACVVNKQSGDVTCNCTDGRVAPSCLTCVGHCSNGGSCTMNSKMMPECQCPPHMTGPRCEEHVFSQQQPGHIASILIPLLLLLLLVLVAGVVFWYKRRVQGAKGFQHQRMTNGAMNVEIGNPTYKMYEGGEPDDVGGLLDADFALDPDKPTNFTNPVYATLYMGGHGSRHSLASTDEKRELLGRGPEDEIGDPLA

With “Alexa488-labeled receptor-associated protein (RAP) (from UniProt P30533 35-357) (ligand)”, the fold RAP binding against N2a-pcDNA3 cells (fold of N2a-pcDNA3 cells) was 2.2.
